In the supplement of paper PMC12338614:

B1: library; numbered along this chain (parent)
chain: MEVVDPQQLGMFTEGELMSVGMDTFIHRIDSTEVIYQPRRKRAKLIGKYLMGDLLGEGSYGKVKEVLDSETLCRRAVKILKKKKLRRIPNGEANVKKEIQLLRRLRHKNVIQLVDVLYNEEKQKMYMVMEYCVCGMQEMLDSVPEKRFPVCQAHGYFCQLIDGLEYLHSQGIVHKDIKPGNLLLTTGGTLKISDLGVAEALHPFAADDTCRTSQGSPAFQPPEIANGLDTFSGFKVDIWSAGVTLYNITTGLYPFEGDNIYKLFENIGKGSYAIPGDCGPPLSDLLKGMLEYEPAKRFSIRQIRQHSWFRKKHPPAEAPVPIPPSPDTKDRWRSMTVVPYLEDLHGADEDEDLFDIEDDIIYTQDFTVPGQVPEEEASHNGQRRGLPKAVCMNGTEAAQLSTKSRAEGRAPNPARKACSASSKIRRLSACKQQ

Variants of: B1
Assay: STK11 functional score (HeLa growth suppression), rescaled enrichment; synonymous median = 1, nonsense median = 0 (normalised score)
Conditions: with HeLa; variant type: missense
Procedure, shortened: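 In HeLa, Bxb1 integrated POPCode codon-randomised libraries of codon-optimised STK11 at an AAVS1 landing pad; three regions were each transfected three times. Integrants, marked as BFP-negative and mCherry-positive, were FACS-sorted 4–5 days after electroporation and expanded for about two weeks before tiled gDNA amplicons were sequenced on NextSeq (~2 million reads per tile). Each functional score is a post/pre-selection log ratio corrected to wild type, rescaled to the synonymous and nonsense medians, and merged across codons and replicate transfections, with error estimated by bootstrapping.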

STK11 functional score, by site and new letter:
E317: R 1.58; V 1.36; S 0.661; C 1.49; P 1.6; F 0.542; A 1.53; G 1.56; Y 1.04; D 1.57; L 1.34; H 1.25; I 1.55; Q 1.2; N 1.6; M 0.316; W 1.62
A316: F 1.19; W 0.538; P 0.694; Y 1.4; L 0.961; M 1; I 1.32; G 1.25; Q 1.53; R 0.901; S 0.768; V 0.768
D330: G 1.23; M 1.58; E 0.786; I 1.33; R 1.47; H 0.985; N 1.44; L 1.59; Q 0.163; C 1.33; A 1.18
K312: D 1.49; E 0.874; L 1.3; A 1.25; G 1.62; W 1.53; Q 1.58; F 0.982; P 1.37; V 1.27; R 1.57; C 1.17; T 1.5; Y 1.2; N 1.58; M 1.45; S 1.29
H313: N 0.48; A 1.33; V 0.495; L 1.48; S 1.17; Y 0.272; D 1.17; E 1.43; W 1.05; C 1.26; R -0.189; I 1.45; M 1.25; Q 0.889; G 1.13; P 0.624
I322: L 0.886; D 1.18; M 0.829; A 1.53; V 1.08; R 1.11; G -0.0839; E 1.11; Y 0.925; C 1.17; S 1.21; T 0.984; F 1.25; W 1.18; H 0.839; N 1.59; Q 0.336
R310: G 0.764; H 1.5; V 1.43; D 1.6; C 1.06; I 1.59; L 1.37; S 1.54; P 0.954; Y 1.53; F 1.35; T 0.923
P321: H 1.21; Y 0.641; W 1.6; V 1.41; I 1.53; N 1.03; A 0.987; L 1.17; D 1.55; S 1.42; G 1.01; M 1.61; R 1.26; F 0.903
P314: T 1.54; S 1.33; M 1.62; G 1.07; L 1.21; R 1.26; E 1.54; N 1.53; Q 1.17; A 1.13; W 1.6; F 1.18; Y 0.95; C 1.53; D 1.5; V 1.16; I 1.5
P319: L 1.3; W 0.513; R 1.53; S 1.4; G 1.53; M 1.39; Q 1.39; D 1.52; A 1.37; V 0.772; F 1.47; Y 1.46; N 1.48; H 1.16; C 0.642
P324: A 1.35; L 1.37; V 1.58; G 1.36; C 1.33; I 1.56; E 1.53; K 0.708; R 1.17; T 1.15; W 0.731; H 1.48; S 1.45; M 0.794; D 1.57
K311: D 1.32; W 0.995; N 0.848; I 1.26; Y 1.06; H 0.501; V 0.835; G 1.35; R 1.43; L 1.04; S 0.915; T 1.3; A 1.61; P 1.07
A318: D 1.51; S 1.33; V 1.11; L 1.58; P 1.59; C 1.23; M 0.577; I 1.49; Q 1.61; R 1.43; F 1.6; Y 1.63; T 1.17
P315: M 1.6; V 1.17; S 1.41; G 1.29; H 1.34; N 1.51; W 0.723; R 1.32; Y 1.29; T 1.2; K 1.56; L 1.42; I 1.21; Q 1.34; D 1.51; E 1.57; A 1.07; C 1.17
F309: N -0.159; D -0.479; R 0.0957; I 1.38; S 0.538; G -0.12; V 0.0641; L 0.874
D327: I 1.6; P 1.59; C 1.27; S 1.58; L 1.55; R 1.61; W 1.57; A 1.28; V 1.31; H 1.21; N 1.3; T 1.6; Y 1.36; G 0.999
P323: T 1.32; D 1.33; Q 0.422; G 1.13; F 1.36; S 1.3; L 0.92; E 1.56; V 1.01; C 1.28; N 1.53; I 1.52; K 1.58; A 1.15; H 1.42; M 1.55; W 0.993; R 1.01
P326: H 0.87; R 1.53; C 1.34; E 1.57; G 1.52; V 0.813; S 1.36; A 0.8; M 1.45; L 1.34; Y 0.263
V320: R 1.49; I 1.59; M 1.47; A 1.55; W 0.717; F 1.07; S 1.48; P 1.56; H 1.59; C 0.788; Y 1.55; T 1.57; L 0.723
S307: I 1.02; R 0.948; T 1.22; L 1.47; V 1.34; F 1.38; G 0.664; P 1.57; W 1.47; D 1.49
W308: V -0.266; R -0.166; Y -0.119; F 1.02; L -0.172; A 0.0826; S -0.303; G 0.086; C -0.11
K329: F 1.18; Y 1.15; E 1.32; L 1.42; N 1.36; P 1.47; Q 1.1; A 1.58; S 0.673; W 0.742; D 1.56; M 1.55; G 1.35; R 0.535; I 1.25
T328: A 1.62; D 1.5; V 1.36; E 1.5; R 1.5; P 1.57; I 1.29; H 1.52; S 1.39; L 1.03; N 0.554; W 1.59
S325: R 1.58; W 0.629; G 0.96; H 1.54; D 1.09; I 1.56; E 1.24; V 0.786; A 1.05; M 0.0951; P 1.51; Y 0.029; Q 1.42; N 1.47; T 1.17; L 1.57
